Experimental data as given in patent publication US8487074B2, “Modulation of lipid rafts” (Lantmannen AS-Faktor AB, priority 2006, dated 2013).
No end group written: not given here.

B1: AF: antisecretory factor, a 41 kDa protein comprising 382 amino acids; the term also covers homologues, derivatives and fragments (protein, listed as Homo sapiens)
chain: MVLESTMVCVDNSEYMRNGDFLPTRLQAQQDAVNIVCHSKTRSNPENNVGLITLANDCEVLTTLTPDTGRILSKLHTVQPKGKITFCTGIRVAHLALKHRQGKNHKMRIIAFVGSPVEDNEKDLVKLAKRLKKEKVNVDIINFGEEEVNTEKLTAFVNTLNGKDGTGSHLVTVPPGPSLADALISSPILAGEGGAMLGLGASDFEFGVDPSADPELALALRVSMEEQRHAGGGARRAARASAAEAGIATTGTEDSDDALLKMTISQQEFGRTGLPDLSSMTEEEQIAYAMQMSLQGAEFGQAESADIDASSAMDTSEPAKEEDDYDVMQDPEFLQSVLENLPGVDPNNEAIRNAMGSLPPRPPRTARRTRRRKTRSETGGKG

Legend:
[1] = test system: injured skin and cartilage; design: species or system rats; settings: rat, in vivo
Procedure: In an experiment it was investigated whether the administration of AF-16 affected the healing process of injured skin and cartilage, using freeze-thaw injury to a rat ear as a model system. […] In addition 1 mg AF-16 was injected intramuscularly just after the implantation of the pump. Thereafter, a freeze-thaw injury was applied by compressing the ear in a standardized manner with the aid of a Pean's forceps, chilled in liquid nitrogen. For comparison, additional rats were treated in the same way in parallel were treated with the vehicle, PBS with 15% ethanol, only and no peptide. Additionally, normal rats, which had not been exposed to any freeze-thaw injury, were used for reference as were non-injured rats having pumps with AF-16 implanted. […] On either side bordering the injured elastic cartilage in the ear there was a formation of new hyaline cartilage. […] The amount of collagen and density of inflammatory cells were reduced in the AF-16 treated animals as compared to those having had the vehicle.

pulmonary hypertension = test: Crotaline (monocrotaline) induced pulmonary hypertension in rats; type: in vivo, Sprague-Dawley rats; settings: crotaline 60 mg/kg ip; minipump infusion; assessed 18 days later; vs untreated normal controls
Procedure: Adolescent and adult rats, with a body weight of 150-300 g and of either sex, were treated experimentally to induce pulmonary hypertension and reactive alterations in the lungs. Pulmonary hypertension (PH) is defined as having a pressure in excess of the normal pulmonary artery pressure, […], usually in the range of 30-40 mm Hg. It is a progressive disease with high morbidity and mortality in humans as well as in animals. Experimental models enable investigation of the initiating mechanisms. A single treatment of rats with monocrotaline is an established approach for the induction of PH (Cf. Mathew et al., 2004). […]
The rats were anaesthetized 18 days later, and their body weights determined. […] The pressure in the right heart ventricle was assessed with the aid of a fiber optic miniature transducer system (Samba System 3200 & Samba Preclin 420 sensor; Samba Sensors AB, V. Frolunda, Sweden), inserted through the right jugular vein. […] In contrast, rats treated with crotaline (single ip injection; 60 mg/kg body weight; crotaline dissolved in PBS) and the vehicle delivered by a Alzet pump had for 18 days an pulmonary artery pressure in excess of 30 mm Hg and a hypertrophy of the right ventricle, as assessed by comparing its wet weight to that of the left ventricle and with the weight of corresponding structures of non-treated, normal rats. […]

injured skin and periost = test: Healing of calvarial skin wound and periost in rabbits; type: in vivo, New Zeeland albino rabbits; settings: vs vehicle
Procedure: Adult rabbits were investigated with regard to whether the administration of AF-16 affected the healing process of injured skin and periost. […] The rabbits had either AF-16 or the vehicle injected intravenously in a marginal ear vein. The dose of AF-16 was up to 5 mg per kg body weight, twice daily. The calvarial skin wound and the injection sites in the ear were investigated macroscopically after a week. Then, specimens were dissected from both areas and prepared by fixation, embedding, sectioning and staining for light microscopic examination.

aquaporins = test: Effects of AF treatment on aquaporins after trauma, infections and other pathological conditions; type: in vivo; settings: topical or systemic administration
Description: Aquaporins are a family of proteins, integrated in membranes, and expressed in all living cells and organisms. The major function of aquaporins is to control the water flow into and out of cells, i.e. between the cytoplasm of cells and the extracellular environment. Each type of cells, tissues and organs have their specific set of aquaporins with characteristic distribution patterns. Functional aquaporins are preferentially clustered in lipid rafts and caveolae, while subunits and dissociated aquaporin complexes may be demonstrable outside these membrane constituents. […] Further, at brain and spinal cord infections, e.g. encephalitis, the patterns of distribution and intensity of these two aquaporins became altered, as disclosed be immunohistochemistry and immunochemistry. The interaction between e.g. neurons and supporting glial cells and vascular structures seems to be intricate and complex, but important.
Experiments are performed mapping in more detail regarding effects of trauma, infections and other pathological conditions. […] Effects are characterized quantitatively and qualitatively and the importance of effects on the structure and functions of the different types of aquaporins in a body. […]

Molecule	structures in the ear of non-injured rats [1]	general appearance and body weight (pulmonary hypertension)	frequency of caveolae (injured skin and periost)	prevalence, distribution and activity of aquaporins and ion channel complexes (aquaporins)
VCHSKTRSNPENNVGL [AF-16, VCHSKTRSNPENNVGL]	did not alter the structures in the ear	–	–	–
B1	–	appeared healthy and had almost the same weight and appearance as the controls	more normal	great impact in monitoring and even normalizing
